Assay results published in PMC7641746 (Nucleic Acids Research, 2020).

Legend:
MED1 (50–660) = MED1 (50–660) (human, UniProt Q15648 50-660); assay: HDX-MS
VDR;RXRα ΔNTD = VDR;RXRα ΔNTD (Homo sapiens;Homo sapiens, UniProt P11473;P19793 1-427;130-462, |); assay: ITC
[1] = target: VDR;RXRα ΔNTD;MED1 (50-660) (Homo sapiens;Homo sapiens;Homo sapiens, UniProt P11473;P19793;Q15648 1-427;130-462;50-660, ||); assay: SEC-MALLS
VDR;RXRα ΔNTD;MED1 (50-660), sequence (Q15648 50-660, stated change not applied, one chain of several): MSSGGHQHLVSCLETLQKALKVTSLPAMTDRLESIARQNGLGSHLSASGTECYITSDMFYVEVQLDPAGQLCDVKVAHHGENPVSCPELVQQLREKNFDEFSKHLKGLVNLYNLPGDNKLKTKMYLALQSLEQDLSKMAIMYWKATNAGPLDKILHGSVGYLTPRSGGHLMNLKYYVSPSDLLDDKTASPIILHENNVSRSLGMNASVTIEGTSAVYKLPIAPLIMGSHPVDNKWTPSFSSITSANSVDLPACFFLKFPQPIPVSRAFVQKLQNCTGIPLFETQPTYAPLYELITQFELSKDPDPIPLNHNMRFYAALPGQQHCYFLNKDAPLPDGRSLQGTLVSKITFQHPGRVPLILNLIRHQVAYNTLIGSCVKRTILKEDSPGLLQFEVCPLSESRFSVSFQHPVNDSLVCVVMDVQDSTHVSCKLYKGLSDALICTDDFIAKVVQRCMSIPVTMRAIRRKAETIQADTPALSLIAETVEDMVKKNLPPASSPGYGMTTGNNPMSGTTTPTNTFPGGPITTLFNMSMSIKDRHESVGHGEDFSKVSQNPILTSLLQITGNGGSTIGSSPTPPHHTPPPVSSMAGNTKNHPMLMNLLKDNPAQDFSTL

MED1 (50–660), sequence (Q15648 50-660): as the sequence (Q15648 50-660, stated change not applied, one chain of several) above

B1: full-length HsVDR (1–427) (receptor)
chain: MEAMAASTSLPDPGDFDRNVPRICGVCGDRATGFHFNAMTCEGCKGFFRRSMKRKALFTCPFNGDCRITKDNRRHCQACRLKRCVDIGMMKEFILTDEEVQRKREMILKRKEEEALKDSLRPKLSEEQQRIIAILLDAHHKTYDPTYSDFCQFRPPVRVNDGGGSHPSRPNSRHTPSFSGDSSSSCSDHCITSSDMMDSSSFSNLDLSEEDSDDPSVTLELSQLSMLPHLADLVSYSIQKVIGFAKMIPGFRDLTSEDQIVLLKSSAIEVIMLRSNESFTMDDMSWTCGNQDYKYRVSDVTKAGHSLELIEPLIKFQVGLKKLNLHEEEHVLLMAICIVSPDRPGVQDAALIEAIQDRLSNTLQTYIRCRHPPPGSHLLYAKMIQKLADLRSLNEEHSKQYRCLSFQPECSMKLTPLVLEVFGNEIS
B1: binds (MED1 (50–660)).

B2: rat Nppa (rANF1) DR3 VDRE (dsDNA)
DNA 1: AGAGGTCATGAAGGACATT
DNA 2: AATGTCCTTCATGACCTCT
B2: binds (VDR;RXRα ΔNTD); binds [1].

B3: HsRXRαΔNTD (130–462) (receptor)
chain: FTKHICAICGDRSSGKHYGVYSCEGCKGFFKRTVRKDLTYTCRDNKDCLIDKRQRNRCQYCRYQKCLAMGMKREAVQEERQRGKDRNENEVESTSSANEDMPVERILEAELAVEPKTETYVEANMGLNPSSPNDPVTNICQAADKQLFTLVEWAKRIPHFSELPLDDQVILLRAGWNELLIASFSHRSIAVKDGILLATGLHVHRNSAHSAGVGAIFDRVLTELVSKMRDMQMDKTELGCLRAIVLFNPDSKGLSNPAEVEALREKVYASLEAYCKHKYPEQPGRFAKLLLRLPALRSIGLKCLEHLFFFKLIGDTPIDTFLMEMLEAPHQMT
B3: binds (MED1 (50–660)).
